# Source: the supplement of paper PMC7877785
# ± gives the uncertainty stated by the source.
# Assay: self-splicing fitness, log relative to wild type (ln ratio); higher = more splicing; Tetrahymena group I intron in knt gene, E. coli kanamycin selection, DiMSum; sequences stand for … in CUCUCU…GGAGGGAAAAGUUAUCAGGCAUGCACCUGGUAGCUAGUCUUUAAACCAAUAGAUUGCAUCGGUUUAAAAGGCAAGACCGUCAAAUUGCGGGAAAGGGGUCAACAGCCGUUCAGUACCAAGUCUCAGGGGAAACUUUGAGAUGGCCUUGCAAAGGGUAUGGUAAUAAGCUGACGGACAUGGUCCUAACCACGCAGCCAAGUCCUAAGUCAACAGAUCUUCUGUUGAUAUGGAUGCAGUUCACAGACUAAAUGUCGGUCGGGGAAGAUGUAUUCUUCUCAUAAGAUAUAGUCGGACCUCUCCUUAAUGGGAGCUAGCGGAUGAAGUGAUGCAACACUGGAGCCGCUGGGAACUAAUUUGUAUGCGAAAGUAUAUUGAUUAGUUUUGGAGUACUCGUGGUCG
# Method in brief: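 Six replicate transformations of E. coli BL21(DE3) with a pET-22b(+) library were grown overnight at 37°C or 30°C. The library randomised all eight P1ex-region intron nucleotides, the intron lying in the knt kanamycin-resistance gene, and plates were LB agar with or without 25 μg/mL kanamycin plus 100 μg/mL carbenicillin, 50 μM IPTG and 0.2% rhamnose. Pooled colonies were amplicon-sequenced on an Illumina HiSeq 2500, and fitness is the DiMSum error-weighted combination of wild-type-normalised replicate fold changes, kanamycin versus none.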
Sequence,self-splicing fitness (ln) (30 °C),self-splicing fitness (ln) (37 °C)
UAUAAGCAAUAUUACGGUAC,-3.46 ± 0.3,-2.23 ± 0.29
UAUAAGCAAUAUUACGGUCG,-0.167 ± 0.097,-0.128 ± 0.12
UAUAAGCAAUAUUACGGUUC,-3.49 ± 0.37,-1.05 ± 0.33
UAUAAGCAAUAUUACGUAUA,-2.77 ± 0.21,-0.986 ± 0.17
UAUAAGCAAUAUUACGUUCU,-1.03 ± 0.14,-1.41 ± 0.2
UAUAAGCAAUAUUACGUUGC,-3.02 ± 0.3,
UAUCAGCAAUAUUACGAAGU,-2.82 ± 0.28,-0.868 ± 0.29
UAUCAGCAAUAUUACGAAUA,-0.934 ± 0.18,-0.486 ± 0.11
UAUCAGCAAUAUUACGACCA,-0.0276 ± 0.12,0.439 ± 0.16
UAUCAGCAAUAUUACGACCC,-1.87 ± 0.15,-1.71 ± 0.18
UAUCAGCAAUAUUACGAUCU,-0.554 ± 0.1,-0.0299 ± 0.098
UAUCAGCAAUAUUACGCAAA,-0.36 ± 0.12,-0.755 ± 0.11
UAUCAGCAAUAUUACGCACC,-0.885 ± 0.22,0.3 ± 0.29
UAUCAGCAAUAUUACGCAUA,-0.316 ± 0.11,0.0108 ± 0.11
UAUCAGCAAUAUUACGCUAC,-4.2 ± 0.42,-3.24 ± 0.26
UAUCAGCAAUAUUACGCUCC,-1 ± 0.29,-0.504 ± 0.31
UAUCAGCAAUAUUACGCUUU,-1.48 ± 0.086,-0.159 ± 0.098
UAUCAGCAAUAUUACGGAAA,-0.825 ± 0.11,-0.253 ± 0.12
UAUCAGCAAUAUUACGGCAC,-2.52 ± 0.17,-0.753 ± 0.14
UAUCAGCAAUAUUACGGUAU,-3.73 ± 0.21,-2.01 ± 0.18
UAUCAGCAAUAUUACGUAGA,-0.562 ± 0.058,-0.0988 ± 0.081
UAUCAGCAAUAUUACGUUAA,-0.97 ± 0.093,-0.0683 ± 0.11
UAUCAGCAAUAUUACGUUAG,-1.22 ± 0.095,-1.03 ± 0.094
UAUGAGCAAUAUUACGACCG,-1.61 ± 0.4,-1.53 ± 0.34
UAUGAGCAAUAUUACGAGUG,-1.52 ± 0.095,-0.43 ± 0.11

Sequence,self-splicing fitness (ln) (30 °C),self-splicing fitness (ln) (37 °C)
UAUGAGCAAUAUUACGCAGA,-3.3 ± 0.29,-2.6 ± 0.23
UAUGAGCAAUAUUACGCCUG,-1.44 ± 0.14,-1.57 ± 0.26
UAUGAGCAAUAUUACGCUAC,-2.79 ± 0.2,-2.25 ± 0.43
UAUGAGCAAUAUUACGCUAU,-1.38 ± 0.31,-1.3 ± 0.23
UAUGAGCAAUAUUACGCUGA,-2.75 ± 0.33,-1.13 ± 0.3
UAUGAGCAAUAUUACGCUUG,-3.32 ± 0.4,0.0607 ± 0.25
UAUGAGCAAUAUUACGGAAU,-3.65 ± 0.47,-2.44 ± 0.38
UAUGAGCAAUAUUACGGUGU,-3.54 ± 0.23,-2.63 ± 0.2
UAUGAGCAAUAUUACGUAAA,-3.46 ± 0.32,-1.59 ± 0.19
UAUGAGCAAUAUUACGUAAC,-2.86 ± 0.36,
UAUGAGCAAUAUUACGUAGA,-2.7 ± 0.18,-2.46 ± 0.2
UAUGAGCAAUAUUACGUAUU,,-3.61 ± 0.35
UAUGAGCAAUAUUACGUGAA,-2.98 ± 0.33,-1.35 ± 0.17
UAUGAGCAAUAUUACGUUAG,-2.63 ± 0.17,-2.23 ± 0.22
UAUGAGCAAUAUUACGUUAU,-3.87 ± 0.33,-2.46 ± 0.19
UAUUAGCAAUAUUACGAAGA,-1.81 ± 0.17,-1.75 ± 0.26
UAUUAGCAAUAUUACGAAGU,-2.67 ± 0.42,-2.12 ± 0.4
UAUUAGCAAUAUUACGACCC,-3.2 ± 0.38,-0.71 ± 0.33
UAUUAGCAAUAUUACGACGA,-0.31 ± 0.18,-0.557 ± 0.23
UAUUAGCAAUAUUACGAUGG,-1.24 ± 0.094,-0.174 ± 0.11
UAUUAGCAAUAUUACGCAAU,-2.79 ± 0.28,-1.77 ± 0.27
UAUUAGCAAUAUUACGCAGG,-1.43 ± 0.14,-0.962 ± 0.14
UAUUAGCAAUAUUACGCCGG,-0.99 ± 0.22,-0.907 ± 0.26
UAUUAGCAAUAUUACGCGAA,-2.22 ± 0.29,-0.951 ± 0.17
UAUUAGCAAUAUUACGCGUC,-4.05 ± 0.35,-2.57 ± 0.26

Sequence,self-splicing fitness (ln) (30 °C),self-splicing fitness (ln) (37 °C)
UAUUAGCAAUAUUACGCUAC,-2.5 ± 0.41,-1.15 ± 0.47
UAUUAGCAAUAUUACGCUCU,-1.02 ± 0.17,-0.332 ± 0.32
UAUUAGCAAUAUUACGCUUA,-1.05 ± 0.2,-0.89 ± 0.25
UAUUAGCAAUAUUACGGCAG,-0.281 ± 0.085,-0.424 ± 0.12
UAUUAGCAAUAUUACGGCCA,-0.0346 ± 0.21,-0.902 ± 0.16
UAUUAGCAAUAUUACGGCGG,-0.834 ± 0.11,-0.195 ± 0.12
UAUUAGCAAUAUUACGGGCA,-0.498 ± 0.19,-0.39 ± 0.17
UAUUAGCAAUAUUACGGUCA,-0.76 ± 0.1,-0.0892 ± 0.095
UAUUAGCAAUAUUACGUAGG,-1.57 ± 0.14,-1.33 ± 0.23
UAUUAGCAAUAUUACGUCAU,-3.69 ± 0.31,-2.81 ± 0.27
UAUUAGCAAUAUUACGUCGA,-1.27 ± 0.16,-0.984 ± 0.17
UAUUAGCAAUAUUACGUGUG,-0.846 ± 0.067,-0.549 ± 0.084
UAUUAGCAAUAUUACGUGUU,-3.04 ± 0.29,-2.86 ± 0.32
UAUUAGCAAUAUUACGUUUU,,-0.0777 ± 0.32
UCAAAGCAAUAUUACGAAUC,,-2.76 ± 0.38
UCAAAGCAAUAUUACGACCU,-1.84 ± 0.19,-0.48 ± 0.19
UCAAAGCAAUAUUACGCAGC,-3.94 ± 0.29,-2.72 ± 0.17
UCAAAGCAAUAUUACGCCAU,-3.37 ± 0.24,-2.27 ± 0.19
UCAAAGCAAUAUUACGCUAU,-3.44 ± 0.22,-1.41 ± 0.18
UCAAAGCAAUAUUACGGACA,-0.451 ± 0.13,0.0835 ± 0.14
UCAAAGCAAUAUUACGGCAA,-1.37 ± 0.15,-0.568 ± 0.12
UCAAAGCAAUAUUACGGCUA,-0.599 ± 0.1,-1.31 ± 0.13
UCAAAGCAAUAUUACGGCUC,,-0.154 ± 0.2
UCAAAGCAAUAUUACGGGAU,-2.04 ± 0.16,-2.46 ± 0.25
UCAAAGCAAUAUUACGGGGG,-2.55 ± 0.14,-1.49 ± 0.14

Sequence,self-splicing fitness (ln) (30 °C),self-splicing fitness (ln) (37 °C)
UCAAAGCAAUAUUACGGUCA,-0.88 ± 0.1,-0.6 ± 0.1
UCAAAGCAAUAUUACGUAUA,-3.27 ± 0.18,-2.17 ± 0.17
UCAAAGCAAUAUUACGUCAA,-2.84 ± 0.23,-2.71 ± 0.29
UCAAAGCAAUAUUACGUGCU,-4.45 ± 0.3,-2.93 ± 0.21
UCAAAGCAAUAUUACGUGUG,-1.51 ± 0.058,-0.749 ± 0.066
UCACAGCAAUAUUACGAACC,-1.05 ± 0.33,-1.68 ± 0.34
UCACAGCAAUAUUACGACCU,-2.97 ± 0.24,-1.16 ± 0.19
UCACAGCAAUAUUACGAGAC,-4.56 ± 0.46,-2.61 ± 0.2
UCACAGCAAUAUUACGAGGG,-2.01 ± 0.088,-1.28 ± 0.12
UCACAGCAAUAUUACGAGUU,-3.54 ± 0.17,-2.08 ± 0.14
UCACAGCAAUAUUACGAUAG,-2.75 ± 0.14,-1.22 ± 0.12
UCACAGCAAUAUUACGAUUA,-1.43 ± 0.1,-0.545 ± 0.11
UCACAGCAAUAUUACGAUUU,-4.01 ± 0.21,-0.814 ± 0.11
UCACAGCAAUAUUACGCCAA,-3.45 ± 0.44,-2.74 ± 0.38
UCACAGCAAUAUUACGCCUA,-1.95 ± 0.3,-0.577 ± 0.18
UCACAGCAAUAUUACGCGGG,-3.28 ± 0.12,-2.56 ± 0.16
UCACAGCAAUAUUACGCUGG,-3.9 ± 0.26,-2.94 ± 0.22
UCACAGCAAUAUUACGGAAU,-4.32 ± 0.25,-2.97 ± 0.22
UCACAGCAAUAUUACGGCCG,-1.24 ± 0.1,-0.536 ± 0.15
UCACAGCAAUAUUACGGCGA,0.0998 ± 0.092,0.202 ± 0.094
UCACAGCAAUAUUACGGCGU,-3.04 ± 0.19,-2.93 ± 0.2
UCACAGCAAUAUUACGGCUU,-3.43 ± 0.22,-1.85 ± 0.17
